Drawing on article PMC4657049, this text covers Kd, koff and kon for two substances.

The term Kd denotes the free concentration of one partner at which half of the binding sites on the other are occupied at equilibrium, for simple one-to-one binding. A lower Kd goes with tighter binding. What is called koff is the rate constant with which the complex falls apart. Low readings indicate slow dissociation, high ones fast dissociation. Usually kon stands for a measure of how fast the partners come together. Higher therefore signals faster complex formation.

The target in this assay is biotinylated eLtaS protein (extracellular domain of LtaS of S. aureus) (S. aureus 8325-4) (UniProt Q2G093). Description: SPR; biotinylated eLtaS immobilised on Sensor Chip SA; C3 and C3b injected at 300, 100, 30, 10 ug/ml; global kinetic fit. (Surface plasmon resonance follows binding to a sensor surface in real time, without labels.)
UniProt Q2G093, sequence (Q2G093 whole entry, the tested form may be a part): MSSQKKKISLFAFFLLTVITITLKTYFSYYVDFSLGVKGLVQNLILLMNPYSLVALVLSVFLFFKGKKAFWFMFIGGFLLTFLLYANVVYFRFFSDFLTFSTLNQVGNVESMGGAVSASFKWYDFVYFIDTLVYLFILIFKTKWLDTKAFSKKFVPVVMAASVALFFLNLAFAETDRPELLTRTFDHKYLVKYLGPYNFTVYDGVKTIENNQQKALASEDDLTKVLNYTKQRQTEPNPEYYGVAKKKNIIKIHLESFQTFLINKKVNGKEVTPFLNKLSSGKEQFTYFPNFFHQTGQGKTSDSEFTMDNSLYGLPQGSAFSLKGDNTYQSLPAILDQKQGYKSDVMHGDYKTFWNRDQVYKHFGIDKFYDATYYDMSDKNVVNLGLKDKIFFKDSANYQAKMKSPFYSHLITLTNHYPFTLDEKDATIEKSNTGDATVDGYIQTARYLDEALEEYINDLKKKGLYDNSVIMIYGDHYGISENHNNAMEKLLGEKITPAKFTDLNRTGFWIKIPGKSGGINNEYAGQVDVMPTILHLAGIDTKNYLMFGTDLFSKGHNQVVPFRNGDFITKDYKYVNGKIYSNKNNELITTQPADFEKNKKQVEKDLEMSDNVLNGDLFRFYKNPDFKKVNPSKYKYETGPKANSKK

With “human complement C3 (from UniProt P01024 23-667; P01024 672-1663) (natural protein)”, the dissociation constant (Kd) came out at 0.687 nM, the koff came to 0.00149 s⁻¹ and the on-rate (kon) amounted to 2.17e+06 M⁻¹ s⁻¹.

For “human complement C3b (from UniProt P01024 23-667; P01024 749-1663) (domain or fragment)”, the dissociation constant Kd was found to be 0.546 nM, the off-rate (koff) came out at 0.00198 s⁻¹ and the association rate constant (kon) was 3.63e+06 M⁻¹ s⁻¹.
